# In PMC9482650, “Quantitative fragmentomics allow affinity mapping of interactomes” (Nature Communications, 2022):
# T1: MPP1, Q00013
# T1 sequence (Q00013 66-162, limits assumed, looked up): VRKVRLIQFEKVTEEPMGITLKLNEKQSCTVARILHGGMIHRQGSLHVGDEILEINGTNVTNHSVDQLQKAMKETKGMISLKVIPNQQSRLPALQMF
# T2: MAGI2_1, Q86UL8
# T2 sequence (Q86UL8 12-111, limits assumed, looked up): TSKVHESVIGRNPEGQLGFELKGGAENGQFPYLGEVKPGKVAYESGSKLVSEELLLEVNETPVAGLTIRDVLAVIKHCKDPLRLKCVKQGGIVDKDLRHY
# T3: NHERF1_2, O14745
# T3 sequence (O14745 149-244, limits assumed, looked up): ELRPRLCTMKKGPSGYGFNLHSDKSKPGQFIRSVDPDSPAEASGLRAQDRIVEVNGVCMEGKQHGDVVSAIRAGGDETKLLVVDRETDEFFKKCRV
# T4: APBA3_2, O96018
# T4 sequence (O96018 480-570, limits assumed, looked up): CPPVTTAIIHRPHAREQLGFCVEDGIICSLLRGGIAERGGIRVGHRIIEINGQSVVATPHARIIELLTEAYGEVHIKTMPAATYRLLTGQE
# T5: PDZD2_3, O15018
# T5 sequence (O15018 581-682, limits assumed, looked up): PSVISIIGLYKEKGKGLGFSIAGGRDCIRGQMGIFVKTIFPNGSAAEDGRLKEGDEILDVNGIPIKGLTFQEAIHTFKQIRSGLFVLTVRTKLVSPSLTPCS
# T6: PDZD4, Q76G19
# T6 sequence (Q76G19 125-224, limits assumed, looked up): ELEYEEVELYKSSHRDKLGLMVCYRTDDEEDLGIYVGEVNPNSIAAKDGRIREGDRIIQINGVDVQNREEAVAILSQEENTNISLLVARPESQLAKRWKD
# T7: MPDZ_13, O75970
# T7 sequence (O75970 1982-2070, limits assumed, looked up): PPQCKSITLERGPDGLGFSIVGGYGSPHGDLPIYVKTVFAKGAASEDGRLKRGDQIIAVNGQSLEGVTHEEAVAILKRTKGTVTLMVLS
# T8: PDZD7_1, Q9H5P4
# T8 sequence (Q9H5P4 81-178, limits assumed, looked up): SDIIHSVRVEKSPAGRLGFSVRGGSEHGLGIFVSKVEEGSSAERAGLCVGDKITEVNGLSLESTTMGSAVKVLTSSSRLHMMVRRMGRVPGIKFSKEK
# T9: USH1C_2, Q9Y6N9
# T9 sequence (Q9Y6N9 206-303, limits assumed, looked up): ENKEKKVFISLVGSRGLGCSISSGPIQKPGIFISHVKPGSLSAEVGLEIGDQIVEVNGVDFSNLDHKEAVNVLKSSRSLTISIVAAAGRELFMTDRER
# T10: MPDZ_3, O75970
# T10 sequence (O75970 372-473, limits assumed, looked up): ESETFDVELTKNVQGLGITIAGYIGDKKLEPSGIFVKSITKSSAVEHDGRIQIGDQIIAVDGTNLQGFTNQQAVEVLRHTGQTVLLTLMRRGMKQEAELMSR
# T11: MPDZ_11, O75970
# T11 sequence (O75970 1720-1817, limits assumed, looked up): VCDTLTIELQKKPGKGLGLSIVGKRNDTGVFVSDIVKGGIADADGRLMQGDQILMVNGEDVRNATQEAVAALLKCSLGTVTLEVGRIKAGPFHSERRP
# T12: PREX2_2, Q70Z35
# T12 sequence (Q70Z35 672-764, limits assumed, looked up): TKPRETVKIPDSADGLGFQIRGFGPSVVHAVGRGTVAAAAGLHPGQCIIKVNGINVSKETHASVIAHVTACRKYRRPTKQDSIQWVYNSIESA
# Columns and labels:
# Experiment in all cases: holdup assay
# Conditions in all cases: plain residues with an end cap or a label only (N-terminal biotin on a linker: (peg)3)
# PDZD9, Q8IXQ8 = target: PDZD9, Q8IXQ8
# PDZD9, Q8IXQ8, sequence (Q8IXQ8 23-120): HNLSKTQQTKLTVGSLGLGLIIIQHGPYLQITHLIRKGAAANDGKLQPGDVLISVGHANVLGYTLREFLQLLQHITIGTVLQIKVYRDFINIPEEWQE
# MAGI1_6, Q96QZ7 = target: MAGI1_6, Q96QZ7
# MAGI1_6, Q96QZ7, sequence (Q96QZ7 1146-1238): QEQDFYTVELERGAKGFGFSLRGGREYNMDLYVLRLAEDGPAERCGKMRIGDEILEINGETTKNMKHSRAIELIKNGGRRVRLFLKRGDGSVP
# MPP1, Q00013 = target: T1, MPP1, Q00013
# MAGI2_1, Q86UL8 = target: T2, MAGI2_1, Q86UL8
# NHERF1_2, O14745 = target: T3, NHERF1_2, O14745
# APBA3_2, O96018 = target: T4, APBA3_2, O96018
# Inadl_7, Q8NI35 = target: Inadl_7, Q8NI35
# Inadl_7, Q8NI35, sequence (Q8NI35 1219-1332): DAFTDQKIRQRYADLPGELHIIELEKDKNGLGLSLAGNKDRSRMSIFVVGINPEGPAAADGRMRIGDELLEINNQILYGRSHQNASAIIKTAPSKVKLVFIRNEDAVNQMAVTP
# GRIP2_2, Q9C0E4 = target: GRIP2_2, Q9C0E4
# GRIP2_2, Q9C0E4, sequence (Q9C0E4 137-245): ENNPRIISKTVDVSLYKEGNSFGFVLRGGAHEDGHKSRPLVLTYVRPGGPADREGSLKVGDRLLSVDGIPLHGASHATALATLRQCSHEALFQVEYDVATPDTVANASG
# PDZD2_3, O15018 = target: T5, PDZD2_3, O15018
# PARD3B_3, Q8TEW8 = target: PARD3B_3, Q8TEW8
# PARD3B_3, Q8TEW8, sequence (Q8TEW8 490-594): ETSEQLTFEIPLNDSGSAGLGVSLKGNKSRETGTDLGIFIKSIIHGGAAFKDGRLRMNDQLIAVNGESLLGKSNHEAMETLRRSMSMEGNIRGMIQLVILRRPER
# PDZD4, Q76G19 = target: T6, PDZD4, Q76G19
# MPDZ_13, O75970 = target: T7, MPDZ_13, O75970
# LNX1_4, Q8TBB1 = target: LNX1_4, Q8TBB1
# LNX1_4, Q8TBB1, sequence (Q8TBB1 631-726): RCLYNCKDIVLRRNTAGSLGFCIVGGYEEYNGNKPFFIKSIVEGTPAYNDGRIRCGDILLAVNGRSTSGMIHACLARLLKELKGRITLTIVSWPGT
# PDZD7_1, Q9H5P4 = target: T8, PDZD7_1, Q9H5P4
# MAGI1_5, Q96QZ7 = target: MAGI1_5, Q96QZ7
# MAGI1_5, Q96QZ7, sequence (Q96QZ7 986-1098): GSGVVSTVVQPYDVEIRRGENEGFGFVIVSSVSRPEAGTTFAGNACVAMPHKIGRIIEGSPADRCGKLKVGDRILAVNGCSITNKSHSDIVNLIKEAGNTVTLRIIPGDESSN
# DVL2, O14641 = target: DVL2, O14641
# DVL2, O14641, sequence (O14641 260-359): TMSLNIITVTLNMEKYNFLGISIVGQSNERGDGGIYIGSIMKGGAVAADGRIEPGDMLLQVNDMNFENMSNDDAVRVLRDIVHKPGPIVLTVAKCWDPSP
# USH1C_2, Q9Y6N9 = target: T9, USH1C_2, Q9Y6N9
# PTPN13_2, Q12923 = target: PTPN13_2, Q12923
# PTPN13_2, Q12923, sequence (Q12923 1363-1462): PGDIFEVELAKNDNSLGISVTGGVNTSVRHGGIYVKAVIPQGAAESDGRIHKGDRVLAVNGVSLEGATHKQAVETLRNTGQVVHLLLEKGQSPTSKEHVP
# IL16_2, Q14005 = target: IL16_2, Q14005
# IL16_2, Q14005, sequence (Q14005 350-450): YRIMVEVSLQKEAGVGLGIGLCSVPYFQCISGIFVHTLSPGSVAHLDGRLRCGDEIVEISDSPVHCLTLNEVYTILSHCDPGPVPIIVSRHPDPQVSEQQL
# MPDZ_3, O75970 = target: T10, MPDZ_3, O75970
# PARD3_1, Q8TEW0 = target: PARD3_1, Q8TEW0
# PARD3_1, Q8TEW0, sequence (Q8TEW0 264-372): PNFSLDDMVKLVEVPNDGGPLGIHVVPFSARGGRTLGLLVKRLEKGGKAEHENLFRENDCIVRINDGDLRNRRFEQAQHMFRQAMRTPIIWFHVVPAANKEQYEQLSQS
# MPDZ_11, O75970 = target: T11, MPDZ_11, O75970
# NHERF4_3, Q86UT5 = target: NHERF4_3, Q86UT5
# NHERF4_3, Q86UT5, sequence (Q86UT5 325-412): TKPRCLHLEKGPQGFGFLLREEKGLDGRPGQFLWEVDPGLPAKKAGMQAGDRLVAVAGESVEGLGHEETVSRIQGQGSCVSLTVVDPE
# AHNAK2, Q8IVF2 = target: AHNAK2, Q8IVF2
# AHNAK2, Q8IVF2, sequence (Q8IVF2 108-193): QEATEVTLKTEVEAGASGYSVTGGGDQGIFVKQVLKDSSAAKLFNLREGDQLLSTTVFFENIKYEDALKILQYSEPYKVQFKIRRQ
# PREX2_2, Q70Z35 = target: T12, PREX2_2, Q70Z35
binder,measurement,setting,value
"NLNSSEGVPDLLV [SARS-CoV-E, P59637]",pKd,"PDZD9, Q8IXQ8",below the threshold
same,pKd,"MAGI1_6, Q96QZ7",below the threshold
same,pKd,"MPP1, Q00013",below the threshold
same,pKd,"MAGI2_1, Q86UL8",below the threshold
same,pKd,"NHERF1_2, O14745",3.74
same,pKd,"APBA3_2, O96018",below the threshold
same,pKd,"Inadl_7, Q8NI35",below the threshold
same,pKd,"GRIP2_2, Q9C0E4",below the threshold
same,pKd,"PDZD2_3, O15018",below the threshold
same,pKd,"PARD3B_3, Q8TEW8",below the threshold
same,pKd,"PDZD4, Q76G19",below the threshold
same,pKd,"MPDZ_13, O75970",below the threshold
same,pKd,"LNX1_4, Q8TBB1",below the threshold
same,pKd,"PDZD7_1, Q9H5P4",below the threshold
same,pKd,"MAGI1_5, Q96QZ7",below the threshold
same,pKd,"DVL2, O14641",below the threshold
same,pKd,"USH1C_2, Q9Y6N9",below the threshold
same,pKd,"PTPN13_2, Q12923",below the threshold
same,pKd,"IL16_2, Q14005",below the threshold
same,pKd,"MPDZ_3, O75970",below the threshold
same,pKd,"PARD3_1, Q8TEW0",3.79
same,pKd,"MPDZ_11, O75970",below the threshold
same,pKd,"NHERF4_3, Q86UT5",below the threshold
same,pKd,"AHNAK2, Q8IVF2",below the threshold
same,pKd,"PREX2_2, Q70Z35",below the threshold
